According to paper PMC10393071 (2023):

T1: BMPR-1A/BMPR-1B (aortic SMC) (Homo sapiens, UniProt P36894)
T1 chain 1: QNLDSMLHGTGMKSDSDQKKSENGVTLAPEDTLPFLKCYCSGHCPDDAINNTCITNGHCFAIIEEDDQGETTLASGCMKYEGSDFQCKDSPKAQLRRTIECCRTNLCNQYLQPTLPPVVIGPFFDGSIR
T1 chain 2: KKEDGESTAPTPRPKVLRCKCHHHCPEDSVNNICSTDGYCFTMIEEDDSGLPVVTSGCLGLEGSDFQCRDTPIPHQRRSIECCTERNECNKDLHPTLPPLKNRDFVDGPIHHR

T2: BMPR-1A (aortic SMC, BMPR-1B siRNA) (Mus musculus, UniProt P36895)
T2 chain: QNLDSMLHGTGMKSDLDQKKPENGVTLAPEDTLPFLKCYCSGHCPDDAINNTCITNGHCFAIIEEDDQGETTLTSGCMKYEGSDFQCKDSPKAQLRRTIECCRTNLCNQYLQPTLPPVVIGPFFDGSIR

T3: BMPR-1B (aortic SMC, BMPR-1A siRNA) (Mus musculus, UniProt P36898)
T3 chain: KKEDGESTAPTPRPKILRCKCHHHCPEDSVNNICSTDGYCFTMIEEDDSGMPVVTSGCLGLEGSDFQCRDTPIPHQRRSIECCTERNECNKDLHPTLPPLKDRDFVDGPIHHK

T4: BMPR-1A/BMPR-1B (aortic SMC) (Mus musculus, UniProt P36895)
T4 chain 1: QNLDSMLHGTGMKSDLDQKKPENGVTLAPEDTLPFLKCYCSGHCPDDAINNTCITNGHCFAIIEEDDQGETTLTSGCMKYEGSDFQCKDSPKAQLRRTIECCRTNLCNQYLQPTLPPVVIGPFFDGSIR
T4 chain 2: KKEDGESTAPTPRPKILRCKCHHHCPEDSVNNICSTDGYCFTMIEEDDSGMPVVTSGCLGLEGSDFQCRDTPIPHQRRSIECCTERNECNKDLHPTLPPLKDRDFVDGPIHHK

T5: BMPR-2 (Mus musculus, UniProt O35607)
T5 chain: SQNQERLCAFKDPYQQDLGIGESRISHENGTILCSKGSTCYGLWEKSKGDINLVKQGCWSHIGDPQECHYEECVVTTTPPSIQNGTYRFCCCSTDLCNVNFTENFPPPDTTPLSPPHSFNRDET

T6: BMPR-1A/BMPR-1B (Mus musculus, UniProt P36895)
T6 chain 1: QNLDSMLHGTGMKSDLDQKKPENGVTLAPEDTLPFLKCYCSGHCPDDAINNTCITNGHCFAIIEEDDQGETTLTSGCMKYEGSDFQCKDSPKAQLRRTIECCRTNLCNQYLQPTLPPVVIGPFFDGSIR
T6 chain 2: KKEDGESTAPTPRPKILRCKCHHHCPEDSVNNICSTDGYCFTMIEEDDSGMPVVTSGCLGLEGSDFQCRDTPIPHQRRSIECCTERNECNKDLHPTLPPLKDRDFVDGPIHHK

T7: BMPR-1A (Mus musculus, UniProt P36895)
T7 chain: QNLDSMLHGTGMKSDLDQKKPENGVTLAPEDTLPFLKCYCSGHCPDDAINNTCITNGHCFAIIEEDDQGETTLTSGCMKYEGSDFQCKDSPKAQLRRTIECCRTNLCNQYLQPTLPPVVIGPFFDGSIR

T8: BMPR-1B (Mus musculus, UniProt P36898)
T8 chain: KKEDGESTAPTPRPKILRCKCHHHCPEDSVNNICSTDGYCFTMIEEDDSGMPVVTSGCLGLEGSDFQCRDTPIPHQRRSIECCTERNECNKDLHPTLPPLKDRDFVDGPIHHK


Assays:
[1] = molecular target: T1, BMPR-1A/BMPR-1B (aortic SMC); assay: FITC-ligand cell membrane binding, Scatchard
[2] = molecular target: T2, BMPR-1A (aortic SMC, BMPR-1B siRNA); assay: FITC-ligand cell membrane binding, Scatchard
[3] = molecular target: T3, BMPR-1B (aortic SMC, BMPR-1A siRNA); assay: FITC-ligand cell membrane binding, Scatchard
[4] = molecular target: T4, BMPR-1A/BMPR-1B (aortic SMC); assay: FITC-ligand cell membrane binding, Scatchard
BMPR-2 = molecular target: T5, BMPR-2; assay: FITC-ligand binding to transfected 293T, Scatchard
BMPR-1A/BMPR-1B = molecular target: T6, BMPR-1A/BMPR-1B; assay: FITC-ligand binding to transfected 293T, Scatchard
BMPR-1A = molecular target: T7, BMPR-1A; assay: FITC-ligand binding to transfected 293T, Scatchard
BMPR-1B = molecular target: T8, BMPR-1B; assay: FITC-ligand binding to transfected 293T, Scatchard

Row | Kd [1] | Kd [2] | Kd [3] | Kd [4] | Kd (BMPR-2) | Kd (BMPR-1A/BMPR-1B) | Kd (BMPR-1A) | Kd (BMPR-1B) | Binder
1 | 14.9 nM | – | – | – | – | – | – | – | ECP (protein) RPPQFTRAQWFAIQHISLNPPRCTIAMRAINNYRWRCKNQNTFLRTTFANVVNVCGNQSIRCPHNRTLNNCHRSRFRVPLLHCDLINPGAQNISNCTYADRPGRRFYVVACDNRDPRDSPRYPVVPVHLDTTI
2 | – | 9.14 nM | 11.1 nM | 15.8 nM | 6.09 nM | 15.5 nM | 10.6 nM | 9.45 nM | mEar1 (protein) LGQTPSQKFAIQHINNNTNLQCNVEMMRINRARRTCKGLNTFLHTSFANAVGVCGNPSGLCSDKRSQNCHNSSSRVHITVCNITSRATNYTQCRYQSRRSLEYYTVACDPRTPQDSPMYPVVPVHLDGTF
3 | 11.6 nM | – | – | – | – | – | – | – | EDN (protein) KPPQFTWAQWFETQHINMTSQQCTNAMQVINNYQRRCKNQNTFLLTTFANVVNVCGNPNMTCPSNKTRKNCHHSGSQVPLIHCNLTTPSPQNISNCRYAQTPANMFYIVACDNRDQRRDPPQYPVVPVHLDRII
